T1: bovine αS2 casein (no signal peptide)
T1 chain: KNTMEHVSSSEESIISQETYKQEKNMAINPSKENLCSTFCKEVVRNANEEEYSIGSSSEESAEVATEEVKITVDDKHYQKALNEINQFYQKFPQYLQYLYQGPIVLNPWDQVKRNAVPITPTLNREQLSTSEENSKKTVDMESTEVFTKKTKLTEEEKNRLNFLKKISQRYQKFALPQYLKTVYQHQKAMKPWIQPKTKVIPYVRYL

T2: bovine β casein (variant A2) (no signal peptide)
T2 chain: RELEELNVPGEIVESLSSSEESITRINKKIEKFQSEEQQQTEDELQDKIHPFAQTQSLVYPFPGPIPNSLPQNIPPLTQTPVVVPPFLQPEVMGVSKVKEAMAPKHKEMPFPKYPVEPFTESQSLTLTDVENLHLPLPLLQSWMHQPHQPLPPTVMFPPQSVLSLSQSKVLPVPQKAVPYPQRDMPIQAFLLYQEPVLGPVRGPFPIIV

T3: bovine αS1 casein (variant C) (no signal peptide)
T3 chain: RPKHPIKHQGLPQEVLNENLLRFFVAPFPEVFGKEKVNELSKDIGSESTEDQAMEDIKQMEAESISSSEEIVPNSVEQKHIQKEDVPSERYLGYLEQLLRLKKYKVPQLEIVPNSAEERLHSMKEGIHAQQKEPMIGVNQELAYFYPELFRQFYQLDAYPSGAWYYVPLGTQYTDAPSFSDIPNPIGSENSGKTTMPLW

T4: FLAG_SERPINB14_HiBiT
T4 chain: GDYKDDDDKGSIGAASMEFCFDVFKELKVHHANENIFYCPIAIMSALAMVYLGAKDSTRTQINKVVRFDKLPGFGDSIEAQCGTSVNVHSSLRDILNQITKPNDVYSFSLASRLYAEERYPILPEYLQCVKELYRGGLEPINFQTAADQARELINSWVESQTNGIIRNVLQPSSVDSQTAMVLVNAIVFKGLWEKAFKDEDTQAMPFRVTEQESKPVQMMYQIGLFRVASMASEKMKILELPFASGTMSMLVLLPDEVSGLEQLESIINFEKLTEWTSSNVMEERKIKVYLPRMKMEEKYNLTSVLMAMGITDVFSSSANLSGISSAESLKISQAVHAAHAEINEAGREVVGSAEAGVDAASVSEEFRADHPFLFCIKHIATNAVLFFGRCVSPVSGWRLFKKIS


Columns and labels:
[1] = target: T1, bovine αS2 casein (no signal peptide)
[2] = target: T2, bovine β casein (variant A2) (no signal …)
[3] = target: T3, bovine αS1 casein (variant C) (no …)
FLAG_SERPINB14_HiBiT = target: T4, FLAG_SERPINB14_HiBiT
[4] = target: FLAG_TRX_SPP1 (G158-N314)_HiBiT
Chain of FLAG_TRX_SPP1 (G158-N314)_HiBiT (chain, as listed by the source): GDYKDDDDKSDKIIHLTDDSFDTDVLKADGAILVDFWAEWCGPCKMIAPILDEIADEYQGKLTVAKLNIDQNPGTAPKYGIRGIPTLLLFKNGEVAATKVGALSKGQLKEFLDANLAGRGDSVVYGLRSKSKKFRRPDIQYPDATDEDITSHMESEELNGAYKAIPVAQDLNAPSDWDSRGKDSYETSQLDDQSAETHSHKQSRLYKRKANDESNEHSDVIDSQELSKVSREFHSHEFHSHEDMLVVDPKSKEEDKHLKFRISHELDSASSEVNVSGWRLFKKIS

| Protein | phosphorylation sites detected by LC-MS/MS after co-expression in Kluyveromyces lactis [1] | phosphorylation sites detected by LC-MS/MS after co-expression in Kluyveromyces lactis [2] | phosphorylation sites detected by LC-MS/MS after co-expression in Kluyveromyces lactis [3] | phosphorylation sites detected by LC-MS/MS after co-expression in Pichia pastoris (FLAG_SERPINB14_HiBiT) | Phosphorylation [4] |
| --- | --- | --- | --- | --- | --- |
| ScMNN2(M1-S36)_Fam20c(D93-R584)_FLAG (protein) MLLTKRFSKLFKLTFIVLILCGLFVITNKYMDENTSDFSSDPSSNLSSHSLEKLPPAAEPAERALRGRDPGALRPHDPAHRPLLRDPGPRRSESPPGPGGDASLLARLFEHPLYRVAVPPLTEEDVLFNVNSDTRLSPKAAENPDWPHAGAEGAEFLSPGEAAVDSYPNWLKFHIGINRYELYSRHNPAIEALLHDLSSQRITSVAMKSGGTQLKLIMTFQNYGQALFKPMKQTREQETPPDFFYFSDYERHNAEIAAFHLDRILDFRRVPPVAGRMVNMTKEIRDVTRDKKLWRTFFISPANNICFYGECSYYCSTEHALCGKPDQIEGSLAAFLPDLSLAKRKTWRNPWRRSYHKRKKAEWEVDPDYCEEVKQTPPYDSSHRILDVMDMTIFDFLMGNMDRHHYETFEKFGNETFIIHLDNGRGFGKYSHDELSILVPLQQCCRIRKSTYLRLQLLAKEEYKLSLLMAESLRGDQVAPVLYQPHLEALDRRLRVVLKAVRDCVERNGLHSVVDDDLDTEHRAASARDYKDDDDK | S23, S24, S25, S46, S52, S71, S72, S73, S76, T145, S146, S150, S158, and T159 | S30, S32, S33, S34, S37, T39, S50, at T56 | S56, S61, S63, T64, S79, S81, S82, S83, S90, S103, and S130 | T92, S99, S165, T202, S206, S222, S271, and S345 | Yes |
| Fam20c(M1-R584)_FLAG (protein) MKMMLVRRFRVLILMVFLVACALHIALDLLPRLERRGARPSGEPGCSCAQPAAEVAAPGWAQVRGRPGEPPAASSAAGDAGWPNKHTLRILQDFSSDPSSNLSSHSLEKLPPAAEPAERALRGRDPGALRPHDPAHRPLLRDPGPRRSESPPGPGGDASLLARLFEHPLYRVAVPPLTEEDVLFNVNSDTRLSPKAAENPDWPHAGAEGAEFLSPGEAAVDSYPNWLKFHIGINRYELYSRHNPAIEALLHDLSSQRITSVAMKSGGTQLKLIMTFQNYGQALFKPMKQTREQETPPDFFYFSDYERHNAEIAAFHLDRILDFRRVPPVAGRMVNMTKEIRDVTRDKKLWRTFFISPANNICFYGECSYYCSTEHALCGKPDQIEGSLAAFLPDLSLAKRKTWRNPWRRSYHKRKKAEWEVDPDYCEEVKQTPPYDSSHRILDVMDMTIFDFLMGNMDRHHYETFEKFGNETFIIHLDNGRGFGKYSHDELSILVPLQQCCRIRKSTYLRLQLLAKEEYKLSLLMAESLRGDQVAPVLYQPHLEALDRRLRVVLKAVRDCVERNGLHSVVDDDLDTEHRAASARDYKDDDDK | S24, S25, S46, T145, S146, S150, S158, T159, and T163 | S30, S32, S33, S34, T39, S50, and T56 | S61, S63, T64, S79, S81, S82, S83, S90, S103, and S130 |  |  |
